# From publication PMC12022308 (Nature Communications, 2025)
# B1: L-protein (homodimeric BchL protein, electron donor component of DPOR) (natural protein, Rhodobacter sphaeroides, UniProt Q9RFD6 1-297, looked up)
# chain: MSPKDLTIPTGADGEGSVQVHLDEADKITGAKVFAVYGKGGIGKSTTSSNLSAAFSILGKRVLQIGCDPKHDSTFTLTGSLVPTVIDVLKDVDFHPEELRPEDFVFEGFNGVMCVEAGGPPAGTGCGGYVVGQTVKLLKQHHLLDDTDVVIFDVLGDVVCGGFAAPLQHADQAVVVTANDFDSIYAMNRIIAAVQAKSKNYKVRLAGCVANRSRATDEVDRFCKETNFRRLAHMPDLDAIRRSRLKKKTLFEMDEDQDVLAARAEYIRLAESLWRGLDPIDPHSLPDRDIFELLGFD
# Target: the molecule itself
# Assay: cryo-EM structure
protein,measurement,value
B1,stoichiometry N,2
